Assays:
[1] = Hydrolysis with endoglucanase preparations, corn stover; assay type: biochemical; settings: 48 h, 45° C., pH 5.0
Description: (§1) The preparations containing the endoglucanases were compared in hydrolysis studies mixed with the purified CBH/Cel7 and CBH/Cel6 enzymes on several pre-treated substrates. Culture filtrates of T. reesei, containing different cloned endoglucanase enzymes were obtained as described in Example 19. The enzymes were enriched by removing thermolabile proteins from the mixtures by a heat treatment (60° C., 2 h, pH 5) and the supernatant was used for the hydrolysis studies. In addition, pure T. reesei cellulases (purified as described by Suurnäkki et al., 2000) were used in the enzyme mixtures. The endoglucanases used in the experiment were:
Steam exploded corn stover fibre (steam pre-treatment at 210° C. for 5 min), dry matter 31.0% (SECS).
(§2) The endoglucanases to be studied (dosage 840 nkat/g dry matter, based on endoglucanase activity against HEC according to IUPAC, 1987) were used either with cellobiohydrolases of T. reesei (CBHI/Cel7A, 8.1 mg/g d.m. and CBHII/Cel6A, 2.0 mg/g d.m.) or with Thermoascus aurantiacus Cel7A with genetically attached CBD of T. reesei (10.1 mg/g d.m.). Purified (Suurnäkki et al., 2000) EGI (Cel7B) and EGII (Cel5A) of T. reesei were also included in the experiments for comparison. All mixtures were supplemented with additional β-glucosidase from Novozym 188 (to make the total β-glucosidase dosage 560 nkat/g d.w., the relatively high dosage was used to compensate the differences in the background activities of the different EG preparations). Triplicate tubes were incubated in mixing at 45° C. for 48 h and reference samples with inactivated enzymes and corresponding substrates were prepared. The release of hydrolysis products was measured as reducing sugars with DNS method using glucose as standard (Table 31).

[2] = Hydrolysis with endoglucanase preparations, spruce; assay type: biochemical; settings: 48 h, 45° C., pH 5.0
Description: as §1
Washed steam pre-treated spruce fibre (impregnation with 3% SO2 for 20 min, followed by steam pre-treatment at 215° C. for 5 min), dry matter 25.9% (SPRUCE).
as §2

[3] = with CBHI and CBHII of T. reesei
[4] = with T. aurantiacus Cel7A + Tr CBD

Row | Molecule | Hydrolysis products as reducing sugars, SECS [1, 3] [mg/mL] | Hydrolysis products as reducing sugars, SPRUCE [2, 3] [mg/mL] | Hydrolysis products as reducing sugars, SPRUCE [2, 4] [mg/mL] | Hydrolysis products as reducing sugars, SECS [1, 4] [mg/mL]
1 | EGII: endoglucanase II (Cel5A) of T. reesei, reference enzyme (protein, UniProt P07982 22-418, looked up) Endoglucanase EG-II: QQTVWGQCGGIGWSGPTNCAPGSACSTLNPYYAQCIPGATTITTSTRPPSGPTTTTRATSTSSSTPPTSSGVRFAGVNIAGFDFGCTTDGTCVTSKVYPPLKNFTGSNNYPDGIGQMQHFVNEDGMTIFRLPVGWQYLVNNNLGGNLDSTSISKYDQLVQGCLSLGAYCIVDIHNYARWNGGIIGQGGPTNAQFTSLWSQLASKYASQSRVWFGIMNEPHDVNINTWAATVQEVVTAIRNAGATSQFISLPGNDWQSAGAFISDGSAAALSQVTNPDGSTTNLIFDVHKYLDSDNSGTHAECTTNNIDGAFSPLATWLRQNNRQAILTETGGGNVQSCIQDMCQQIQYLNQNSDVYLGYVGWGAGSFDSTYVLTETPTSSGNSWTDTSLVSSCLARK | 3.5 | 3.8 | 3.2 | –
2 | EGI: endoglucanase I (Cel7B) of T. reesei, reference enzyme (protein, UniProt P07981 23-459, looked up) Endoglucanase EG-1: QQPGTSTPEVHPKLTTYKCTKSGGCVAQDTSVVLDWNYRWMHDANYNSCTVNGGVNTTLCPDEATCGKNCFIEGVDYAASGVTTSGSSLTMNQYMPSSSGGYSSVSPRLYLLDSDGEYVMLKLNGQELSFDVDLSALPCGENGSLYLSQMDENGGANQYNTAGANYGSGYCDAQCPVQTWRNGTLNTSHQGFCCNEMDILEGNSRANALTPHSCTATACDSAGCGFNPYGSGYKSYYGPGDTVDTSKTFTIITQFNTDNGSPSGNLVSITRKYQQNGVDIPSAQPGGDTISSCPSASAYGGLATMGKALSSGMVLVFSIWNDNSQYMNWLDSGNAGPCSSTEGNPSNILANNPNTHVVFSNIRWGDIGSTTNSTAPPPPPASSTTFSTTRRSSTTSSSPSCTQTHWGQCGGIGYSGCKTCTSGTTCQYSNDYYSQCL | 4.6 | 3.5 | – | 4.2
